Earlier results as cited in US20030175848A1, “Substituted dithiobisnitrobenzenes and their applications” (Institut Pasteur De Lille, priority 1998, published 2003).

Target: T1, human thioredoxin reductase (hTrxR) (Homo sapiens, UniProt Q16881)
T1 construct: U of native hTrxR; from tissue; host or cells: human placenta
T1 sequence (Q16881 151-649 limits assumed): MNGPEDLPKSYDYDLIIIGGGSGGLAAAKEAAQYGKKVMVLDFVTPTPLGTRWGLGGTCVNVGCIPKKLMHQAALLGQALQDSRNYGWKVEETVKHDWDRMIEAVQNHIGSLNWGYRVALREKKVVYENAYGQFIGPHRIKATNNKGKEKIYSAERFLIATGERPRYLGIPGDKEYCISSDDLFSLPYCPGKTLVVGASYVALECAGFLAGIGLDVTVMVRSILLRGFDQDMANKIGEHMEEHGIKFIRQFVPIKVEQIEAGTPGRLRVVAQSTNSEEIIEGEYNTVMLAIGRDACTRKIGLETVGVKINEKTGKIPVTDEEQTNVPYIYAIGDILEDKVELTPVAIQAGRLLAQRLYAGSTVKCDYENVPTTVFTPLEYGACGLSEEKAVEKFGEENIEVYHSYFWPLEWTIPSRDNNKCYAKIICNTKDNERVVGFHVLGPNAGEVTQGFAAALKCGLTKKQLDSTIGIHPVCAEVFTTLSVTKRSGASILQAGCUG
Details: substrate of native hTrxR (placenta); references [29], [38]

B1: HTrx: human thioredoxin, physiological substrate of hTrxR (protein, UniProt P10599 2-105, looked up)
Thioredoxin: VKQIESKTAFQEALDAAGDKLVVVDFSATWCGPCKMIKPFFHSLSEKYSNVIFLEVDVDDCQDVASECEVKCMPTFQFFKKGQKVGEFSGANKEKLEATINELV
Km: 4.3 µM
